Measurements taken from IntAct's records for PubMed 22439934.

B1: Zinc finger protein GLI1 (Homo sapiens), P08151 (parent)
chain: MFNSMTPPPISSYGEPCCLRPLPSQGAPSVGTEGLSGPPFCHQANLMSGPHSYGPARETNSCTEGPLFSSPRSAVKLTKKRALSISPLSDASLDLQTVIRTSPSSLVAFINSRCTSPGGSYGHLSIGTMSPSLGFPAQMNHQKGPSPSFGVQPCGPHDSARGGMIPHPQSRGPFPTCQLKSELDMLVGKCREEPLEGDMSSPNSTGIQDPLLGMLDGREDLEREEKREPESVYETDCRWDGCSQEFDSQEQLVHHINSEHIHGERKEFVCHWGGCSRELRPFKAQYMLVVHMRRHTGEKPHKCTFEGCRKSYSRLENLKTHLRSHTGEKPYMCEHEGCSKAFSNASDRAKHQNRTHSNEKPYVCKLPGCTKRYTDPSSLRKHVKTVHGPDAHVTKRHRGDGPLPRAPSISTVEPKREREGGPIREESRLTVPEGAMKPQPSPGAQSSCSSDHSPAGSAANTDSGVEMTGNAGGSTEDLSSLDEGPCIAGTGLSTLRRLENLRLDQLHQLRPIGTRGLKLPSLSHTGTTVSRRVGPPVSLERRSSSSSSISSAYTVSRRSSLASPFPPGSPPENGASSLPGLMPAQHYLLRARYASARGGGTSPTAASSLDRIGGLPMPPWRSRAEYPGYNPNAGVTRRASDPAQAADRPAPARVQRFKSLGCVHTPPTVAGGGQNFDPYLPTSVYSPQPPSITENAAMDARGLQEEPEVGTSMVGSGLNPYMDFPPTDTLGYGGPEGAAAEPYGARGPGSLPLGPGPPTNYGPNPCPQQASYPDPTQETWGEFPSHSGLYPGPKALGGTYSQCPRLEHYGQVQVKPEQGCPVGSDSTGLAPCLNAHPSEGPPHPQPLFSHYPQPSPPQYLQSGPYTQPPPDYLPSEPRPCLDFDSPTHSTGQLKAQLVCNYVQSQQELLWEGGGREDAPAQEPSYQSPKFLGGSQVSPSRAKAPVNTYGPGFGPNLPNHKSGSYPTPSPCHENFVVGANRASHRAAAPPRLLPPLPTCYGPLKVGGTNPSCGHPEVGRLGGGPALYPPPEGQVCNPLDSLDLDNTQLDFVAILDEPQGLSPPPSHDQRGSSGHTPPPSGPPNMAVGNMSVLLRSLPGETEFLNSSA
B2: Zinc finger protein GLI1 (Homo sapiens), P08151 (parent)
chain: B1 chain
partner: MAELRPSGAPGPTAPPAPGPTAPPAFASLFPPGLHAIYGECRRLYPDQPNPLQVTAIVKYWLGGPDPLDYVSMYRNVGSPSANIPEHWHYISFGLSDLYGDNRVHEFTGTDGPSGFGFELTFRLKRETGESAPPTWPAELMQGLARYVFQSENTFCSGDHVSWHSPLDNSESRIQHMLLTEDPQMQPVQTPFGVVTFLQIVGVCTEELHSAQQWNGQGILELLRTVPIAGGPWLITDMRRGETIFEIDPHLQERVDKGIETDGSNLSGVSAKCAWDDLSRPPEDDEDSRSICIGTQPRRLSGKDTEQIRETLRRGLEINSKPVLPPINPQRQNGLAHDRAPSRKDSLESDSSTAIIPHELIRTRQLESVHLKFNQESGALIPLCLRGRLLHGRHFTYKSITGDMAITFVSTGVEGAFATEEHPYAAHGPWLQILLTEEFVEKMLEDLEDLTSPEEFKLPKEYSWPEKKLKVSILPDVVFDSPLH

Variants of: B1
Conditions: with RPS6KB1, P23443-2
Chain of RPS6KB1, P23443-2 (P23443 24-525): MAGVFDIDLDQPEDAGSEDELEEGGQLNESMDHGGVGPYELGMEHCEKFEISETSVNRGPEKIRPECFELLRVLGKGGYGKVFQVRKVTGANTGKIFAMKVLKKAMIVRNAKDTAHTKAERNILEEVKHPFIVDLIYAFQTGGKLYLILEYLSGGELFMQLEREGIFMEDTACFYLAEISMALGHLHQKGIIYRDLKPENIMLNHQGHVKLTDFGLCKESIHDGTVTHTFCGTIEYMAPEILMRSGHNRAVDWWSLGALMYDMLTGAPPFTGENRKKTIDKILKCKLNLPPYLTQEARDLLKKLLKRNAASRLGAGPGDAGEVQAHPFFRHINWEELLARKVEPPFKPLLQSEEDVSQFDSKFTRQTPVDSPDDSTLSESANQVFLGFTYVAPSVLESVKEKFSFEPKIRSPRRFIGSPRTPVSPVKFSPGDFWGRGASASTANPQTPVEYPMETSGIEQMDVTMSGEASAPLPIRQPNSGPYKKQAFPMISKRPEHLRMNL
With S84A the “effect of a mutation on the interaction” value was “disrupting interaction”.

Variants of: B2
Conditions: with sufu_human SUFU
For S84E, the “effect of a mutation on the interaction” value was “decreasing interaction”.
